B1: BsLuxS (Co-BsLuxS) (Bacillus subtilis subsp. subtilis str. 168) (protein)
chain: MPSVESFELDHNAVVAPYVRHCGVHKVGTDGVVNKFDIRFCQPNKQAMKPDTIHTLEHLLAFTIRSHAEKYDHFDIIDISPMGCQTGYYLVVSGEPTSAEIVDLLEDTMKEAVEITEIPAANEKQCGQAKLHDLEGAKRLMRFWLSQDKEELLKVFG

Experiments:
Cys83 = Cys83 (UniProt position 83, ISPMGCRTGFY); conditions: free enzyme (no substrate or ligand bound); metal form not stated; cited from earlier work
[1] = system: N[C@@H](CCSC[C@@H](O)C(=O)[C@@H](O)CO)C(=O)O; test: purified protein; conditions: Co(II) enzyme
[2] = system: N[C@@H](CCSC[C@@H](O)C(=O)[C@@H](O)CO)C(=O)O; test: homocysteine release, DTNB assay; format: biochemical, Vibrio campbellii; conditions: Co(II) enzyme
[3] = substrate: N[C@@H](CCSC[C@@H](O)C(=O)[C@@H](O)CO)C(=O)O; test: homocysteine release, DTNB assay; format: biochemical, Bacillus subtilis; conditions: Co(II) enzyme

Molecule | Km [2] | kcat [2] | kcat/Km [2] | also measured
S-ribosylhomocysteinase (LuxS), EcLuxS (Escherichia coli) | – | – | – | pKa (Cys83): <6
VhLuxS (Co-VhLuxS) (Vibrio campbellii ATCC BAA-1116) | – | – | – | Km [1]: 27 ± 2 µM; kcat [1]: 0.64 ± 0.02 s⁻¹; kcat/Km [1]: 24000 M⁻¹ s⁻¹
VhLuxS (Co-VhLuxS) (Vibrio campbellii ATCC BAA-1116; C83A) | 700 ± 120 µM | 0.022 ± 0.002 s⁻¹ | 31 M⁻¹ s⁻¹ | –
VhLuxS (Co-VhLuxS) (Vibrio campbellii ATCC BAA-1116; E57A) | 98 ± 13 µM | 0.012 ± 0.001 s⁻¹ | 120 M⁻¹ s⁻¹ | –
VhLuxS (Co-VhLuxS) (Vibrio campbellii ATCC BAA-1116; E57D) | 730 ± 120 µM | 0.026 ± 0.003 s⁻¹ | 36 M⁻¹ s⁻¹ | –
VhLuxS (Co-VhLuxS) (Vibrio campbellii ATCC BAA-1116; H11Q) | 520 ± 60 µM | 0.024 ± 0.002 s⁻¹ | 47 M⁻¹ s⁻¹ | –
VhLuxS (Co-VhLuxS) (Vibrio campbellii ATCC BAA-1116; R39M) | 150 ± 20 µM | 0.016 ± 0.001 s⁻¹ | 110 M⁻¹ s⁻¹ | –
VhLuxS (Co-VhLuxS) (Vibrio campbellii ATCC BAA-1116; S6A) | 40 ± 3 µM | 0.14 ± 0.01 s⁻¹ | 3400 M⁻¹ s⁻¹ | –
B1 | – | – | – | Km [3]: 3.6 ± 0.1 µM; kcat [3]: 0.038 ± 0.001 s⁻¹; kcat/Km [3]: 11000 M⁻¹ s⁻¹
